Reference: article PMC4063175

Target: Src13-GCN4-eGFP/mCherry
Test: PIE-FCCS

- fc (fraction correlated), mean: 0.25
- fc (fraction correlated), median: 0.23
Substance: Src13-GCN4-eGFP/mCherry
